In the supplement of paper PMC12042874 one finds amyloid nucleation score data, which are given here for 140 substances.

± gives the uncertainty stated by the source.

The data set can be described thus: amyloid nucleation score (Sup35N fusion, yeast selection) (log enrichment); library NNK1; higher = more nucleation; inactive = no reads after selection. Summed up: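 DiMSum was used to calculate nucleation scores as log enrichment of output over input reads, centred on the mode score of non-aggregating sequences. Sequences with fewer than 100 input reads were not scored. Input and output came from Illumina sequencing of plasmid inserts in psi-negative yeast expressing peptides of 20 random codons fused to Sup35N, induced 24 hours with 100 μM copper sulfate and then grown 7 days at 30°C on medium lacking adenine and uracil.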
LIIVEIMLDDVSVVSFRVIH showed an amyloid nucleation score of 0.195 ± 0.6.
LIMVFVDSLRNRLELCFFQC: the amyloid nucleation score entry is “inactive”.
For LINSFLVLWKPFIFAEGRTR the value was 7.903 ± 0.066; for LIQIDLF, -0.264 ± 0.56.
The result for LIRNINHWASYRFFCNCSSW reads 6.443 ± 0.06.
As to LIRREHSRL, the amyloid nucleation score result is “inactive”.
The result for LIVIPKGG reads 1.58 ± 0.51; that for LIVNLDMTSVLHVSGELR, 5.22 ± 0.078; that for LIVRNRHCLGAPFENFFSAR, 0.671 ± 0.37.
For LIYESNREHYYMRSRSAVTR the value was -0.825 ± 0.99; for LIYYNLIGHRVSWGEVGYFV, 0.014 ± 0.35.
The result for LKFKARLRRTLPVQQNRAIG reads “inactive”; that for LKGKTLVMSFFRSAKITVAH, “inactive”.
In turn, LKGVIYAVANWGWIISGHEV yielded an amyloid nucleation score of 0.837 ± 0.23.
The result for LKISWR reads 0.724 ± 0.36; that for LKLCKVRMQTLLNDVGTSCP, 0.025 ± 0.4.
For LKLYLYTLECTFDELDYGD the value was 0.161 ± 0.41; for LKQSYKKPY, “inactive”.
The result for LKTYFGVVSRTLGLCLREEI reads 0.489 ± 0.43; that for LKYLR, 1.14 ± 0.15.
In the case of LLASAIHLNRTADAMKEYYP, the amyloid nucleation score was -0.036 ± 0.39.
The result for LLDGYSLDNIGLEVGNASSN reads 0.53 ± 0.41.
The result for LLFKNRISPITTI reads 0.174 ± 0.47.
In the case of LLFLSMMVSASCC, the amyloid nucleation score was determined as 1.09 ± 0.39.
For LLFYLRSLKMYVLYSGHTMS the value was 1.25 ± 0.45.
For LLFYYLHIFMFSDDRVM the value was 0.582 ± 0.56; for LLGRYNLLYIGMFRATRGGC, -0.094 ± 1.5.
Consider LLIEWRLDSGWCTTGSENRD, for which the amyloid nucleation score is -0.347 ± 0.4.
In turn, LLIGYWLNLECLRYEMCHVL gave an amyloid nucleation score of -0.396 ± 0.66.
For LLLGDC the value was -1.43 ± 2.4.
For LLLGW the value was -0.102 ± 0.32; for LLLIFNEELW, -0.28 ± 0.43; for LLNAFWSFAY, 1.6 ± 0.32.
For LLNFCIWAKCWYRLVCNC the value was 0.209 ± 0.93.
Substance LLPRGESHVKLKDRGSRMPW registered an amyloid nucleation score of 0.921 ± 0.5.
For LLRGSCFMCSLLDYALVKEG the value was 3.84 ± 0.1.
For the substance LLRLFALLTLNNLV, the amyloid nucleation score is -0.296 ± 0.31.
The result for LLRLVSFCCFSNRN reads 6.05 ± 0.053.
For LLRYITARETSLTQSQP the value was 0.298 ± 0.53; for LLSFGTFTGPKRVYLSLSMV, 0.059 ± 0.86; for LLVGMPPNIDM, -0.078 ± 0.41.
Substance LLVSLSNCFLIWSSAGSMGG gave an amyloid nucleation score of 1.81 ± 0.23.
For LLVWNVNGSAMSCNDRCLQS the value was 7.141 ± 0.049; for LLYRMKVFADVGGDVLKSEG, “inactive”.
The result for LLYVLSTLIMYTSTMYIYQV reads 0.662 ± 0.51; that for LLYVRVHCLTAGFADSEASI, -0.168 ± 0.4.
For LMAHSGSAP the value was 3.3 ± 0.19; for LMAPLCICKNFRPELWFNRI, -0.115 ± 0.58.
Turning to LMCWFAGEDPVFVYTVFIVT, the amyloid nucleation score is -1.49 ± 1.4.
The result for LMGGNDNWGTTNPEDGILIW reads -0.347 ± 0.41.
On to LMLISHEDFLLVFAWFN, for which the amyloid nucleation score was -0.062 ± 0.54.
For LMLVRLVCLHLDDETHIRQR the value was “inactive”; for LMMQRERPFRLYL, -1.34 ± 1.6.
The result for LMNFSNWDELR reads -1.26 ± 2.4; that for LMSLIMI, 0.032 ± 0.44; that for LMTLDYSTYQHRRATDVWDG, -0.65 ± 1.3.
The result for LMTNKKNVMMRRIHTGVASN reads 0.368 ± 0.97; that for LMWGIAYCYSVDLC, 5.386 ± 0.051; that for LMYQSFRLTGSYVVIFLYES, -0.543 ± 1.1.
In turn, LMYSNRYF gave an amyloid nucleation score of 4.1 ± 0.079.
The result for LMYSVS reads 0.434 ± 0.38; that for LNAESLMSRFVCGMFVVTKG, 0.112 ± 1.2.
The result for LNCCRMGGVLS reads 0.11 ± 0.42; that for LNCGHYQIASGF, 0.393 ± 0.72; that for LNCPFYIFFLLHTVSA, 6.608 ± 0.065.
With LNGVNLRGFTRWLVGCGDVD, the amyloid nucleation score came out at 0.141 ± 0.65.
The result for LNKTSFPWLKSYKVWRNVMD reads 1.71 ± 0.58.
Consider LNLWPIDANVGWLWKRWRWR, for which the amyloid nucleation score was -0.538 ± 2.1.
The result for LNNYNGVTVGWGNSWYLYLG reads -0.116 ± 0.45; that for LNSRHVNSYF, 0.869 ± 0.48.
For LNTVSEITVVAKLNF the value was 2.3 ± 0.12; for LNWSNKWSFTNMRRFCAMF, 0.01 ± 0.26.
In turn, LNYFLLLMFQCDGRILFRFY registered an amyloid nucleation score of 0.652 ± 0.84.
As for LPALKCELGAAMLSAQLMAR, the amyloid nucleation score is -0.18 ± 0.24.
The result for LPCYSSLQSLGQRMQVKG reads 0.025 ± 0.31.
LPFVDLKFL came in with an amyloid nucleation score of 0.374 ± 0.28.
For LPNRCASIVRQIVQVWCVS the value was 2.41 ± 0.12; for LPPTLVLMIHNRRVCRCSLA, 1.05 ± 0.69; for LPSIYSFSSCNVVEDEGQM, -0.685 ± 1.2.
For LQFLSGYNC the value was 0.293 ± 0.49.
For LQQITGSCSFSGWGLK the value was 0.091 ± 0.46; for LQRGQVLALADSRFCVRCSR, 1.02 ± 0.57; for LQVVALW, 0.123 ± 0.56.
Regarding LRAVTWLRYAYQGLFDVDV, the amyloid nucleation score is -0.07 ± 0.56.
The result for LRAYSVAFYRLPHVSN reads 1.35 ± 0.79.
LRCLVLYDEVANGRPEDSGG showed an amyloid nucleation score of 0.725 ± 1.
The substance LRFRMNSLLVKWFFP showed an amyloid nucleation score of -0.199 ± 0.34.
For LRGRLYASGRVEFYHKQSLF the value was 0.526 ± 0.83; for LRHLVIGNKNALLVWFRSHI, 0.817 ± 0.52; for LRIFSKLFTSSLYNCFEGIP, 0.143 ± 0.58.
The result for LRKALRLDVHLGTNLYLNSF reads 0.542 ± 0.75.
For LRLPSRAFEGFRREAAWGST the value was 1.23 ± 0.76; for LRNDLVETSVLGA, 1.47 ± 0.54.
With LRNVSFSDFVYWSGFFRGVV, the amyloid nucleation score entry was “inactive”.
Take LRPYFLGCRRSKKPKALLAG: the amyloid nucleation score was 0.252 ± 0.8.
For LRSLAPCVLGKTGESEPRAF the value was 0.056 ± 0.58; for LRTISNVDLLSVS, 0.138 ± 0.54.
For LRTNTWCYGESSRLWGWCGG the value was 0.067 ± 1.2.
The result for LRTVPIALIRNMLPVNQESR reads 0.479 ± 0.53; that for LRVYPGTYLTNRETRSRSCI, 0.828 ± 0.43; that for LRYFDFCISRLDSEGN, 0.264 ± 0.64.
LSAMWKSPMHRERRTWGM returned an amyloid nucleation score of 0.096 ± 0.42.
The result for LSCYLYALVKGLGLRVGHIK reads 0.177 ± 0.55; that for LSEYYKAKGDRVTWPQFLTT, -0.453 ± 0.49; that for LSFIKRMTMNMLTKLD, 1.68 ± 0.13.
The result for LSGGWEVPQVVAERKARPWI reads -0.037 ± 1.7; that for LSGMDTLGIVRCAVA, -0.325 ± 0.46; that for LSGSMGA, -0.105 ± 0.44.
The result for LSGTNASIWY reads -0.212 ± 0.35.
Take LSGVLGSVAFAYIRPRTGFG: the amyloid nucleation score is -0.143 ± 1.2.
The substance LSHVKTTRLMPLET came in with an amyloid nucleation score of -1.11 ± 1.7.
For LSKYP the value was 0.383 ± 0.35.
The result for LSLNSHYCDDCVWLFR reads 1.02 ± 0.45; that for LSLRCCGFYLIVFFVIKFVS, -0.536 ± 0.29.
For LSLSYHMLSYI the value was “inactive”.
LSNALS: the amyloid nucleation score was 0.8 ± 0.81.
Consider LSNFDRWKTSTVWNSGWFAA, for which the amyloid nucleation score is -0.149 ± 1.3.
Regarding LSRIDRFTVGENMVTATFLI, the amyloid nucleation score entry is “inactive”.
For the substance LSRILLRKNC, the amyloid nucleation score stood at 0.224 ± 0.61.
For LSRLCGSRLLVRVVWRHYRG the value was -0.21 ± 0.28.
The result for LSRSSWQQARICARVHGLGG reads 1.05 ± 0.58; that for LSSRHVAGYQEYLNDL, -0.88 ± 0.72.
On to LSSSWLNKKLH, for which the amyloid nucleation score is -0.647 ± 0.9.
The result for LSTTWDFESMGVRVSREYPG reads 0.351 ± 0.58; that for LTCKMDIDKVWVGDMLYS, -0.677 ± 0.62.
Substance LTEDMNYFAY registered an amyloid nucleation score of 0.252 ± 0.46.
LTFLRIYAIDSEPHLSGTML came in with an amyloid nucleation score of -0.51 ± 0.71.
For LTGGVDHC the value was 0.138 ± 0.32.
The result for LTGRCPFVGLRLEGHLFLTG reads -0.169 ± 0.81; that for LTKISQLKRCDHKMRKSVSN, 0.517 ± 0.26.
For LTKRVGFDEMSLPHQDASSV the value was -0.289 ± 0.36; for LTMCSGICEVIRQARDHHYR, 0.149 ± 0.97.
As to LTSFETFQNFNMAVMYAR, the amyloid nucleation score was -0.236 ± 0.65.
For LTSSCQSSLKRKWGNIWHIR the value was -0.641 ± 1.1; for LTYRVFIHYRSRQYVFGTVS, -0.667 ± 0.62; for LVAFRYLRSGSSRLKFSVLF, -0.787 ± 0.48.
The result for LVESMNLIPATANRHNFTRL reads -0.672 ± 1.4; that for LVGGVTNWWCVEVDQKGQNG, “inactive”.
The result for LVGPAVVSYCCIRLISVVD reads 1.94 ± 0.58; that for LVGRYSWWQRRRHGTCMGTV, 0.629 ± 0.54.
